The values below come from publication PMC12990809.

Common to all, as to test: pulldown
The target in data set [1] is T1, LmjF.32.2810 (Leishmania major) (UniProt Q4Q4Z4).
T1 sequence: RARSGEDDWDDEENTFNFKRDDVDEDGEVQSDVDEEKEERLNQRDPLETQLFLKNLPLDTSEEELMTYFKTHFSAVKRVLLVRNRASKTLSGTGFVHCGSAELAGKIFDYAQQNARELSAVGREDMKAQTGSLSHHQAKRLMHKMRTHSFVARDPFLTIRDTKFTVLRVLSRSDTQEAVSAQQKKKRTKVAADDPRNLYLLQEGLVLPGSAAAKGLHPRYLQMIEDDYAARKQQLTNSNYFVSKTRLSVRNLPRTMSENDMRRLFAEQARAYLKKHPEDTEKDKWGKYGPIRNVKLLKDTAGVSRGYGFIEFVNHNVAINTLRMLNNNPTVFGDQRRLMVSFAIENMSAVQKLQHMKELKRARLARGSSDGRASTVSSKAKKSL
To be noted: 20 nM protein, 1.5 uM RNA pool; 20 mM HEPES pH 7.8, 70 mM KCl, 10 mM NaCl, 10% glycerol, 2 mM DTT, 0.1 ug/uL BSA; 30 min, 4 C.

Data set [2] addresses T2, SCHCODRAFT_35516 S109T;I250V (Schizophyllum commune) (UniProt A0ACF2EGB7).
T2 sequence: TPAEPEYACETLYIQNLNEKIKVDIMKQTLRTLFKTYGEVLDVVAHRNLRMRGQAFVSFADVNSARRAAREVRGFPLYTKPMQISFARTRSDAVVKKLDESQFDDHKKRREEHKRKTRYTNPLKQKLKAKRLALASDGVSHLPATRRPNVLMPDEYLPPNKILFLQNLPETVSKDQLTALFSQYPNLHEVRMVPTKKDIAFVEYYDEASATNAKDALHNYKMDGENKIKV
To be noted: 20 nM protein, 1.5 uM RNA pool; 20 mM HEPES pH 7.8, 70 mM KCl, 10 mM NaCl, 10% glycerol, 2 mM DTT, 0.1 ug/uL BSA; 30 min, 4 C.

Data set [3] concerns the target T3, LmjF.25.0500 (Leishmania major) (UniProt Q4QA45).
T3 sequence: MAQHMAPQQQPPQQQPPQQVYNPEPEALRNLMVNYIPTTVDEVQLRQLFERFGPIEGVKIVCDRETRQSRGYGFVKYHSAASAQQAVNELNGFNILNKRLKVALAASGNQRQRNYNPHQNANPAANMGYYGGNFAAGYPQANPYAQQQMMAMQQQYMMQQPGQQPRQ
To be noted: 20 nM protein, 1.5 uM RNA pool; 20 mM HEPES pH 7.8, 70 mM KCl, 10 mM NaCl, 10% glycerol, 2 mM DTT, 0.1 ug/uL BSA; 30 min, 4 C.

For data set [4], the target named is T4, LmjF.29.1360 (Leishmania major) (UniProt E9ADZ5).
T4 sequence: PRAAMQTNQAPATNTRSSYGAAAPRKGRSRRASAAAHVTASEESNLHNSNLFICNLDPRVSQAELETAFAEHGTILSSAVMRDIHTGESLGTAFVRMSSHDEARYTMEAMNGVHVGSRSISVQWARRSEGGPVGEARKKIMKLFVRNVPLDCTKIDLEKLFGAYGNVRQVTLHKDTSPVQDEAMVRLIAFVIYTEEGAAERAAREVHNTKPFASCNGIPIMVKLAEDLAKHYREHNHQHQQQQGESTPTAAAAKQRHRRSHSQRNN
As to conditions: 20 nM protein, 1.5 uM RNA pool; 20 mM HEPES pH 7.8, 70 mM KCl, 10 mM NaCl, 10% glycerol, 2 mM DTT, 0.1 ug/uL BSA; 30 min, 4 C.

Data set [5] concerns the target T5, HRP1 (Saccharomyces cerevisiae) (UniProt Q99383).
T5 sequence: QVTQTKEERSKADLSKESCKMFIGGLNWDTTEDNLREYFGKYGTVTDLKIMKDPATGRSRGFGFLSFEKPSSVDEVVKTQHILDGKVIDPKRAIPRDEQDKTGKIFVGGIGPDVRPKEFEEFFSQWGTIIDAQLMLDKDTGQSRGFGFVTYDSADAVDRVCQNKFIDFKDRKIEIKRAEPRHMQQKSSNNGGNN
As to conditions: 20 nM protein, 1.5 uM RNA pool; 20 mM HEPES pH 7.8, 70 mM KCl, 10 mM NaCl, 10% glycerol, 2 mM DTT, 0.1 ug/uL BSA; 30 min, 4 C (protocol of this paper; not …); cited from earlier work.

The target in data set [6] is T6, LmjF.30.2180 (Leishmania major) (UniProt Q4Q775).
T6 sequence: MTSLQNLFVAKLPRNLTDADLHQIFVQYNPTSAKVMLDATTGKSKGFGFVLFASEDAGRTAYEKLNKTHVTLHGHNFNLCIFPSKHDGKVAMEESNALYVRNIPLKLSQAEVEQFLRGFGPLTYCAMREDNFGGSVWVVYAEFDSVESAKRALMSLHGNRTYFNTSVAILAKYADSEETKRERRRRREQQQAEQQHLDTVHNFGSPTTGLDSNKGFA
As to conditions: 20 nM protein, 1.5 uM RNA pool; 20 mM HEPES pH 7.8, 70 mM KCl, 10 mM NaCl, 10% glycerol, 2 mM DTT, 0.1 ug/uL BSA; 30 min, 4 C.

Data set [7] addresses T7, SCHCODRAFT_72118 N130T;T236A;D255N (Schizophyllum commune) (UniProt A0ACF2F787).
T7 sequence: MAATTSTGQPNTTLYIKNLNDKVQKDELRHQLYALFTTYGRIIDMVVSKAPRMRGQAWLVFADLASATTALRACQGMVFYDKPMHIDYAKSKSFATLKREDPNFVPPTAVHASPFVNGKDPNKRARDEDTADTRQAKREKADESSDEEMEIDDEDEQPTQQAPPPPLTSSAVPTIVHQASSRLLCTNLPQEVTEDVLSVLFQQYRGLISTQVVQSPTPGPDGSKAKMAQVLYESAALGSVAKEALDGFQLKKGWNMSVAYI
To be noted: 20 nM protein, 1.5 uM RNA pool; 20 mM HEPES pH 7.8, 70 mM KCl, 10 mM NaCl, 10% glycerol, 2 mM DTT, 0.1 ug/uL BSA; 30 min, 4 C.

The next data set deals with ELAVL1 (Homo sapiens) (UniProt Q15717). As to conditions: 20 nM protein, 1.5 uM RNA pool; 20 mM HEPES pH 7.8, 70 mM KCl, 10 mM NaCl, 10% glycerol, 2 mM DTT, 0.1 ug/uL BSA; 30 min, 4 C (protocol of this paper; not …); cited from earlier work.
The target in data set [8] is T8, LmjF.33.1450 (Leishmania major) (UniProt Q4Q442).
T8 sequence: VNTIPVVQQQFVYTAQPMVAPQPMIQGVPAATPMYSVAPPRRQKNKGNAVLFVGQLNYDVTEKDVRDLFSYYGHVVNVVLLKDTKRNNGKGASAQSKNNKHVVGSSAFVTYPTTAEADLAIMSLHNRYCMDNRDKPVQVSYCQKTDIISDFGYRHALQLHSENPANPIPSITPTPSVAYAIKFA
As to conditions: 20 nM protein, 1.5 uM RNA pool; 20 mM HEPES pH 7.8, 70 mM KCl, 10 mM NaCl, 10% glycerol, 2 mM DTT, 0.1 ug/uL BSA; 30 min, 4 C.

Sequence of ELAVL1 (Homo sapiens) (Q15717 1-325): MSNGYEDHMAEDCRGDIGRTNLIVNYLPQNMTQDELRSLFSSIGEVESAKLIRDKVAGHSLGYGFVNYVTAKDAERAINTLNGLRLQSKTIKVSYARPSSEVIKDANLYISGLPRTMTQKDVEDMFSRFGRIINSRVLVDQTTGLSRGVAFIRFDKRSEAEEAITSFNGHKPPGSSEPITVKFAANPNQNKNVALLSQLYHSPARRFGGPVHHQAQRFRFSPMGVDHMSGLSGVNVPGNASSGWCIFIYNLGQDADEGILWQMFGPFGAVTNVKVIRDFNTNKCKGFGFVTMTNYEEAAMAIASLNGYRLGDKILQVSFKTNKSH

Regarding GUAGNA [RNAcompete motif RNCMPT00716], the binding signal (z-score (mean of top ten 7-mers)) in data set [1] stood at 6.94.

UAGCACA [RNAcompete motif RNCMPT00725] returned a binding signal (z-score (mean of top ten 7-mers)) in data set [2] of 10.8.

For UAGUUU [RNAcompete motif RNCMPT00689], the binding signal (z-score (mean of top ten 7-mers)) in data set [3] came to 11.6.

For UAUAGU [RNAcompete motif RNCMPT00714], in data set [4], the binding signal (z-score (mean of top ten 7-mers)) was found to be 20.4.

In the case of UAUGUA [RNAcompete motif RNCMPT00031], in data set [5], the binding signal (z-score (mean of top ten 7-mers)) was 23.4.

UCAAAA [RNAcompete motif RNCMPT00715] showed a binding signal (z-score (mean of top ten 7-mers)) in data set [6] of 22.8.

In [7], UGCACA [RNAcompete motif RNCMPT00723] displayed a binding signal (z-score (mean of top ten 7-mers)) of 8.86.

Take UUAUUUU [RNAcompete motif RNCMPT00032]: in the data set with ELAVL1 (Homo sapiens), the binding signal (z-score (mean of top ten 7-mers)) was 15.

UUGCAGU [RNAcompete motif RNCMPT00717] gave a binding signal (z-score (mean of top ten 7-mers)) in data set [8] of 21.8.
